In experiment [1] the target is SB2F1 (Pseudomonas putida | Bradyrhizobium japonicum) (UniProt Q88JB0). The experiment can be described thus: SEC; analytical SEC, in the dark only, Superdex 200 10/300 GL, 20 mM tris pH 8.0, 40 mM NaCl, 0.5 ml/min. In general terms: In gel filtration, larger molecules generally elute earlier.
For experiment [2] the target is unchanged. Briefly: SAXS + other: DLS; in solution with ATP and MgCl2, in the dark and after blue light illumination; SAXS at 10 °C in 20 mM Hepes pH 7.5, 150 mM NaCl, 2% glycerol, 2 mM TCEP, 1.5 mM ATP, 3 mM MgCl2, 0.64 to 4.18 mg/ml; DLS at 20 °C, ~1 mg/ml.
Experiment [3] addresses SB2F1, SeMet-labeled (Pseudomonas putida | Bradyrhizobium japonicum) (UniProt Q88JB0). The experiment can be described thus: crystal structure; dark-grown crystals, sitting-drop vapor diffusion, 19 °C, 10 to 12% PEG-8000, 0.2 M NaCl, 0.1 M sodium citrate pH 5.8 to 6.1, 1 mM ATP, 2 mM MgCl2; for SB2F1 also dark-grown crystals illuminated with blue light before data collection.

The target in experiment [4] is SB2F1-I66R, SeMet-labeled (Pseudomonas putida | Bradyrhizobium japonicum) (UniProt Q88JB0). Described as above.
The target is the same in experiment [5]. Briefly: crystal structure; crystals grown under continuous blue light (450 nm), 19 °C, 16 to 20% PEG-3350, 0.2 M LiSO4, 0.1 M bicine pH 9.0 to 9.3, 1 mM ATP, 2 mM MgCl2.

This is an account of results in publication PMC13322254.

One may read the stoichiometry N as a count of units in the complex or per binding partner. Take “SB2F1 (from UniProt Q88JB0 1-120) (enzyme)”: the stoichiometry N in experiment [1] and in experiment [2] was 2 each time. In turn, “SB2F1, SeMet-labeled (from UniProt Q88JB0 1-120) (enzyme)” had a stoichiometry N in experiment [3] of 2. For “SB2F1-I66R, SeMet-labeled (from UniProt Q88JB0 1-120) (enzyme)”, the stoichiometry N in experiment [4] and in experiment [5] was 2 throughout.
